Test results from PMC9482650, “Quantitative fragmentomics allow affinity mapping of interactomes” (Nature Communications, 2022).

Columns and labels:
Experiment in all cases: holdup assay
Set-up in all cases: key: below the threshold = too weak to quantify, mostly under pKd 3.1 to 4
APBA2_2, Q99767 = biological target: T1, APBA2_2, Q99767
T1 sequence (Q99767 654-744, limits assumed, looked up): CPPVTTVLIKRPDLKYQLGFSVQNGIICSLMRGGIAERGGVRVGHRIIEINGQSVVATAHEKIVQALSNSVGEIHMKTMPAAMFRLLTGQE

CARD11, Q9BXL7 = biological target: T2, CARD11, Q9BXL7
T2 sequence (Q9BXL7 662-765, limits assumed, looked up): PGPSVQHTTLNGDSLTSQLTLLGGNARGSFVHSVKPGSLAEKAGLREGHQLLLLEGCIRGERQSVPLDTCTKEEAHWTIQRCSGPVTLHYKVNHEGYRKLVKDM

CASK, O14936 = biological target: CASK, O14936
CASK, O14936, sequence (O14936 487-570): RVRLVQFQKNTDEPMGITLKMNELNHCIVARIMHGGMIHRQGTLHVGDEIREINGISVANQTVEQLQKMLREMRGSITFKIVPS

DFNB31_2, Q9P202 = biological target: T3, DFNB31_2, Q9P202
T3 sequence (Q9P202 274-371, limits assumed, looked up): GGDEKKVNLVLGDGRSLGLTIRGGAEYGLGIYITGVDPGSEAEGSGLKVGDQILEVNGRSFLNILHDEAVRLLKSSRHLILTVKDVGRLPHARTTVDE

DLG3_2, Q92796 = biological target: T4, DLG3_2, Q92796
T4 sequence (Q92796 221-321, limits assumed, looked up): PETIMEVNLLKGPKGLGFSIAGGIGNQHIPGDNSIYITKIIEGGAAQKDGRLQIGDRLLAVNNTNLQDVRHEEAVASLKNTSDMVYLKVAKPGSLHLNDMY

DLG3_3, Q92796 = biological target: T5, DLG3_3, Q92796
T5 sequence (Q92796 374-475, limits assumed, looked up): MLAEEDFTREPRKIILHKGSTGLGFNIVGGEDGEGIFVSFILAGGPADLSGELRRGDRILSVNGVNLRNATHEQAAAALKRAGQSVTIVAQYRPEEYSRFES

DLG4_1, P78352 = biological target: DLG4_1, P78352
DLG4_1, P78352, sequence (P78352 62-152): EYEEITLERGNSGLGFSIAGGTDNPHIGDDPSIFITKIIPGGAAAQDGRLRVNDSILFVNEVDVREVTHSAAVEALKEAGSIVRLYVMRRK

FRMPD2_3, Q68DX3 = biological target: FRMPD2_3, Q68DX3
FRMPD2_3, Q68DX3, sequence (Q68DX3 1073-1166): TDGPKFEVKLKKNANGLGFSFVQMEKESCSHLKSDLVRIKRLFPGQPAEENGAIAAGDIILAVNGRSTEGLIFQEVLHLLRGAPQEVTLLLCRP

GRIP2_3, Q9C0E4 = biological target: GRIP2_3, Q9C0E4
GRIP2_3, Q9C0E4, sequence (Q9C0E4 238-339): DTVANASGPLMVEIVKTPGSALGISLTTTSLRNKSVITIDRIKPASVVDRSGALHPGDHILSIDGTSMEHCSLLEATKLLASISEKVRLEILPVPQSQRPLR

GRIP2_4, Q9C0E4 = biological target: GRIP2_4, Q9C0E4
GRIP2_4, Q9C0E4, sequence (Q9C0E4 446-548): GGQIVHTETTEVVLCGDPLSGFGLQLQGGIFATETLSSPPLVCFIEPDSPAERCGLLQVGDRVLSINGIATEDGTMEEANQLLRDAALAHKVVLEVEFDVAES

GRIP2_5, Q9C0E4 = biological target: GRIP2_5, Q9C0E4
GRIP2_5, Q9C0E4, sequence (Q9C0E4 544-642): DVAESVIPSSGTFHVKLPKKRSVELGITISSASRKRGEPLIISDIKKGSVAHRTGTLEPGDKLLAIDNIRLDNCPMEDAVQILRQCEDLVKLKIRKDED

GRIP2_6, Q9C0E4 = biological target: GRIP2_6, Q9C0E4
GRIP2_6, Q9C0E4, sequence (Q9C0E4 648-740): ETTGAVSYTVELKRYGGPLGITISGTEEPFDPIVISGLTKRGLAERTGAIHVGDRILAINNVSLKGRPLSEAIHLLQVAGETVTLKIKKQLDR

IL16_3, Q14005 = biological target: IL16_3, Q14005
IL16_3, Q14005, sequence (Q14005 1107-1207): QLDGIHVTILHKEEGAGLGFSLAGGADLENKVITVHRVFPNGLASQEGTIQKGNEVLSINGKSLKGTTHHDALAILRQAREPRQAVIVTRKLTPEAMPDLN

Inadl_1, Q8NI35 = biological target: Inadl_1, Q8NI35
Inadl_1, Q8NI35, sequence (Q8NI35 113-229): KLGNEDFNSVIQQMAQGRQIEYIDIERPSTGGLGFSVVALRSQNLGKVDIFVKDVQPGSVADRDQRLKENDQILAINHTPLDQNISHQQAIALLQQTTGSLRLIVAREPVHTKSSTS

Inadl_8, Q8NI35 = biological target: Inadl_8, Q8NI35
Inadl_8, Q8NI35, sequence (Q8NI35 1425-1530): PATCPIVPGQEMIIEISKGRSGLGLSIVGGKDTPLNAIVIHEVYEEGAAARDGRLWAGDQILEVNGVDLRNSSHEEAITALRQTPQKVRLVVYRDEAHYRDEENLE

LDB3, O75112 = biological target: LDB3, O75112
LDB3, O75112, sequence (O75112 1-94): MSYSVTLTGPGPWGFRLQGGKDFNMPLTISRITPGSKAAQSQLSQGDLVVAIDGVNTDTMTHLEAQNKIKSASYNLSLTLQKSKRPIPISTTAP

LIMK2, P53671 = biological target: LIMK2, P53671
LIMK2, P53671, sequence (P53671 143-248): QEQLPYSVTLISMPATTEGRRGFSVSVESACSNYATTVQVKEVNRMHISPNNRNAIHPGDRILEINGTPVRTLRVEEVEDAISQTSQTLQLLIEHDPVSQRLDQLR

LNX2_2, Q8N448 = biological target: T6, LNX2_2, Q8N448
T6 sequence (Q8N448 334-432, limits assumed, looked up): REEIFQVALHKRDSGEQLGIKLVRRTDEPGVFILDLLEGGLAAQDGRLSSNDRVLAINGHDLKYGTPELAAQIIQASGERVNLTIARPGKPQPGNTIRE

MAGI2_4, Q86UL8 = biological target: MAGI2_4, Q86UL8
MAGI2_4, Q86UL8, sequence (Q86UL8 772-865): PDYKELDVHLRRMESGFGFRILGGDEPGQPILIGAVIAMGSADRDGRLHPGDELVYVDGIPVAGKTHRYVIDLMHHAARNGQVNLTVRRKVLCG

MAGI2_6, Q86UL8 = biological target: MAGI2_6, Q86UL8
MAGI2_6, Q86UL8, sequence (Q86UL8 1141-1229): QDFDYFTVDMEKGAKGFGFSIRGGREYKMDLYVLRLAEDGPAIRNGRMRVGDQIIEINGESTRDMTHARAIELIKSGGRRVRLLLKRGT

MAGI3_2, Q5TCQ9 = biological target: MAGI3_2, Q5TCQ9
MAGI3_2, Q5TCQ9, sequence (Q5TCQ9 398-503): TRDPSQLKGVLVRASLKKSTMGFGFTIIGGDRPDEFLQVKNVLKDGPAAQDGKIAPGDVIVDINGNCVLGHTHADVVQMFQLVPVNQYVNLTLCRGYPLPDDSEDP

MPDZ_12, O75970 = biological target: T7, MPDZ_12, O75970
T7 sequence (O75970 1857-1958, limits assumed, looked up): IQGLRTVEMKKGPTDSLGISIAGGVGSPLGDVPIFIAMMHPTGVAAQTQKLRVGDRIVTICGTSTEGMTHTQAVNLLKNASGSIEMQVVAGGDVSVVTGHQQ

MPP2, Q14168 = biological target: T8, MPP2, Q14168
T8 sequence (Q14168 180-250, limits assumed, looked up): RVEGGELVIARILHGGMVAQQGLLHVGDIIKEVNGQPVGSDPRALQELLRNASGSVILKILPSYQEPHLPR

PDZD7_3, Q9H5P4 = biological target: T9, PDZD7_3, Q9H5P4
T9 sequence (Q9H5P4 857-944, limits assumed, looked up): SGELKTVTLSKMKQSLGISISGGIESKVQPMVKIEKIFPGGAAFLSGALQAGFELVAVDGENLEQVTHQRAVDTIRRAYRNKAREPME

PTPN3, P26045 = biological target: PTPN3, P26045
PTPN3, P26045, sequence (P26045 505-587): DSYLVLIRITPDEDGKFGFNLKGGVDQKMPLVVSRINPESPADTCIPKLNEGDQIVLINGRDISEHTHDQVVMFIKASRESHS

SHANK1, Q9Y566 = biological target: T10, SHANK1, Q9Y566
T10 sequence (Q9Y566 658-767, limits assumed, looked up): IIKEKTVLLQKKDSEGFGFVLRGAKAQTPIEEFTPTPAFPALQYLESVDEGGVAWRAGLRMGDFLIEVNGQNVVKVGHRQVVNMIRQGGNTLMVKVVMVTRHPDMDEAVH

TJP1_3, Q07157 = biological target: TJP1_3, Q07157
TJP1_3, Q07157, sequence (Q07157 416-512): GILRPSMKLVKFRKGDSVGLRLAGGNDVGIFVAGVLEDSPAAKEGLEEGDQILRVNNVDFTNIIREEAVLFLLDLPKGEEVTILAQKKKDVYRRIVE

TJP3_3, O95049 = biological target: T11, TJP3_3, O95049
T11 sequence (O95049 375-456, limits assumed, looked up): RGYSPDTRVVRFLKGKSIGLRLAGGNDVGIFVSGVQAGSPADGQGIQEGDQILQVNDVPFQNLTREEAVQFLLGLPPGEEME

[1] = plain residues with an end cap or a label only (N-terminal biotin on a linker: ado-ado)
[2] = plain residues with an end cap or a label only (N-terminal biotin on a linker: (peg)3)

B1: TANC1, Q9C0D5 (peptide)
chain: PKRSFIESNV
Q: Which results are given for B1?
A: pKd (APBA2_2, Q99767; [1]): below the threshold; pKd (CARD11, Q9BXL7; [1]): below the threshold; pKd (CASK, O14936; [1]): below the threshold; pKd (DFNB31_2, Q9P202; [1]): below the threshold; pKd (DLG3_2, Q92796; [1]): 4.77; pKd (DLG3_3, Q92796; [1]): 4.23; pKd (DLG4_1, P78352; [1]): 4.73; pKd (FRMPD2_3, Q68DX3; [1]): below the threshold; pKd (GRIP2_3, Q9C0E4; [1]): below the threshold; pKd (GRIP2_4, Q9C0E4; [1]): below the threshold; pKd (GRIP2_5, Q9C0E4; [1]): below the threshold; pKd (GRIP2_6, Q9C0E4; [1]): below the threshold; pKd (IL16_3, Q14005; [1]): below the threshold; pKd (Inadl_1, Q8NI35; [1]): below the threshold; pKd (Inadl_8, Q8NI35; [1]): 4.15; pKd (LDB3, O75112; [1]): below the threshold; pKd (LIMK2, P53671; [1]): below the threshold; pKd (LNX2_2, Q8N448; [1]): below the threshold; pKd (MAGI2_4, Q86UL8; [1]): below the threshold; pKd (MAGI2_6, Q86UL8; [1]): 4.09; pKd (MAGI3_2, Q5TCQ9; [1]): 5.24; pKd (MPDZ_12, O75970; [1]): below the threshold; pKd (MPP2, Q14168; [1]): below the threshold; pKd (PDZD7_3, Q9H5P4; [1]): 4.12; pKd (PTPN3, P26045; [1]): 4.57; pKd (SHANK1, Q9Y566; [1]): below the threshold; pKd (TJP1_3, Q07157; [1]): below the threshold; pKd (TJP3_3, O95049; [1]): below the threshold

B2: CES3, Q6UWW8 (peptide)
chain: QKNRKAQEDL
Q: B2 was tested. Which pKd (APBA2_2, Q99767; [1]) did it give?
A: below the threshold

Q: And the pKd (CARD11, Q9BXL7; [1])?
A: 3.5

Q: And the pKd (CASK, O14936; [1])?
A: below the threshold

Q: What about the pKd (DFNB31_2, Q9P202; [1]) of the same binder?
A: below the threshold

Q: What about the pKd (DLG3_2, Q92796; [1]) of the same binder?
A: 4.21

Q: What about the pKd (DLG3_3, Q92796; [1]) of the same binder?
A: below the threshold

Q: And the pKd (DLG4_1, P78352; [1])?
A: below the threshold

Q: What about the pKd (FRMPD2_3, Q68DX3; [1]) of the same binder?
A: below the threshold

Q: What about the pKd (GRIP2_3, Q9C0E4; [1]) of the same binder?
A: below the threshold

Q: And the pKd (GRIP2_4, Q9C0E4; [1])?
A: below the threshold

Q: What about the pKd (GRIP2_5, Q9C0E4; [1]) of the same binder?
A: below the threshold

Q: And the pKd (GRIP2_6, Q9C0E4; [1])?
A: below the threshold

Q: And the pKd (IL16_3, Q14005; [1])?
A: below the threshold

Q: And the pKd (Inadl_1, Q8NI35; [1])?
A: below the threshold

Q: What about the pKd (Inadl_8, Q8NI35; [1]) of the same binder?
A: below the threshold

Q: What about the pKd (LDB3, O75112; [1]) of the same binder?
A: below the threshold

Q: And the pKd (LIMK2, P53671; [1])?
A: below the threshold

Q: And the pKd (LNX2_2, Q8N448; [1])?
A: below the threshold

Q: What about the pKd (MAGI2_4, Q86UL8; [1]) of the same binder?
A: below the threshold

Q: And the pKd (MAGI2_6, Q86UL8; [1])?
A: below the threshold

Q: What about the pKd (MAGI3_2, Q5TCQ9; [1]) of the same binder?
A: below the threshold

Q: What about the pKd (MPDZ_12, O75970; [1]) of the same binder?
A: below the threshold

Q: What about the pKd (MPP2, Q14168; [1]) of the same binder?
A: below the threshold

Q: What about the pKd (PDZD7_3, Q9H5P4; [1]) of the same binder?
A: below the threshold

Q: And the pKd (PTPN3, P26045; [1])?
A: 3.74

Q: What about the pKd (SHANK1, Q9Y566; [1]) of the same binder?
A: below the threshold

Q: And the pKd (TJP1_3, Q07157; [1])?
A: below the threshold

Q: What about the pKd (TJP3_3, O95049; [1]) of the same binder?
A: below the threshold

B3: SARS-CoV-E, P59637 (peptide)
chain: NLNSSEGVPDLLV
Q: With B3 as the binder, how does the pKd (APBA2_2, Q99767; [2]) read?
A: below the threshold

Q: What about the pKd (CARD11, Q9BXL7; [2]) of the same binder?
A: below the threshold

Q: What about the pKd (CASK, O14936; [2]) of the same binder?
A: below the threshold

Q: And the pKd (DFNB31_2, Q9P202; [2])?
A: below the threshold

Q: What about the pKd (DLG3_2, Q92796; [2]) of the same binder?
A: below the threshold

Q: What about the pKd (DLG3_3, Q92796; [2]) of the same binder?
A: below the threshold

Q: And the pKd (DLG4_1, P78352; [2])?
A: below the threshold

Q: What about the pKd (FRMPD2_3, Q68DX3; [2]) of the same binder?
A: below the threshold

Q: What about the pKd (GRIP2_3, Q9C0E4; [2]) of the same binder?
A: below the threshold

Q: What about the pKd (GRIP2_4, Q9C0E4; [2]) of the same binder?
A: below the threshold

Q: And the pKd (GRIP2_5, Q9C0E4; [2])?
A: below the threshold

Q: What about the pKd (GRIP2_6, Q9C0E4; [2]) of the same binder?
A: below the threshold

Q: And the pKd (IL16_3, Q14005; [2])?
A: below the threshold

Q: What about the pKd (Inadl_1, Q8NI35; [2]) of the same binder?
A: below the threshold

Q: What about the pKd (Inadl_8, Q8NI35; [2]) of the same binder?
A: 3.96

Q: What about the pKd (LDB3, O75112; [2]) of the same binder?
A: below the threshold

Q: And the pKd (LIMK2, P53671; [2])?
A: below the threshold

Q: And the pKd (LNX2_2, Q8N448; [2])?
A: 4.24

Q: What about the pKd (MAGI2_4, Q86UL8; [2]) of the same binder?
A: below the threshold

Q: What about the pKd (MAGI2_6, Q86UL8; [2]) of the same binder?
A: below the threshold

Q: And the pKd (MAGI3_2, Q5TCQ9; [2])?
A: below the threshold

Q: And the pKd (MPDZ_12, O75970; [2])?
A: below the threshold

Q: What about the pKd (MPP2, Q14168; [2]) of the same binder?
A: below the threshold

Q: What about the pKd (PDZD7_3, Q9H5P4; [2]) of the same binder?
A: below the threshold

Q: And the pKd (PTPN3, P26045; [2])?
A: below the threshold

Q: What about the pKd (SHANK1, Q9Y566; [2]) of the same binder?
A: below the threshold

Q: And the pKd (TJP1_3, Q07157; [2])?
A: below the threshold

Q: And the pKd (TJP3_3, O95049; [2])?
A: below the threshold
